According to article PMC11257196:

Target: human serum albumin (human) (UniProt P02768)
Experiment: ultrafiltration

How did the percent bound turn out when “interleukin-1 receptor antagonist in fusion to albumin binding domain (IL-1Ra-ABD) (from UniProt P18510 26-177)” was run?
Its percent bound is 78%.

And the percent released from HSA in the first 50 h?
Its percent released from HSA in the first 50 h is 80%.
